Experiment [1] has as its target biotinylated recombinant human CLL-1 extracellular domain protein, isoform with glutamine at amino acid position 244 (human) (UniProt Q5QGZ9). Nature of the experiment: Blitz (CLL-1-Q244).
Experiment [2] has the same target. Nature of the experiment: BLItz, 1:1 model (Q244 per FIG. 12B).
Experiment [3] has as its target biotinylated recombinant human CLL-1 extracellular domain protein, isoform with lysine at amino acid position 244 (human) (UniProt Q5QGZ9). Briefly: Exp 1 (= Octet, CLL-1-K244 of FIG. 12B). On the technique in general: Biolayer interferometry detects binding as a change in optical thickness at a sensor tip.
Experiment [4] concerns the target biotinylated recombinant human CLL-1 extracellular domain protein, isoform with glutamine at amino acid position 244 (human) (UniProt Q5QGZ9). Briefly: Exp 2 (= Blitz, CLL-1-Q244 of FIG. 12B).
For experiment [5], the target named is biotinylated recombinant human CLL-1 extracellular domain protein, isoform with lysine at amino acid position 244 (human) (UniProt Q5QGZ9). Briefly: Octet (CLL-1-K244); variant column says Only Q.
biotinylated recombinant human CLL-1 extracellular domain protein, isoform with lysine at amino acid position 244 (human), sequence (Q5QGZ9 65-265): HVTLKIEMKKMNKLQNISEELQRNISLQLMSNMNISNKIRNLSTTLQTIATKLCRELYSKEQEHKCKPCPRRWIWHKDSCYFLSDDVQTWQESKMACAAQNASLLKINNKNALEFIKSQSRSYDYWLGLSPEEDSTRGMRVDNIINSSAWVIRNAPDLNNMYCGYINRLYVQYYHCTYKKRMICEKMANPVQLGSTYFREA

As a reminder, the Kd is the constant that tells how readily two partners part at equilibrium. As usually defined, the koff is a measure of how fast the partners let go of each other. For orientation: kon means the rate constant with which the complex forms.

biotinylated recombinant human CLL-1 extracellular domain protein, isoform with glutamine at amino acid position 244 (human), sequence (Q5QGZ9 65-265): as above

B1: Anti-CLL-1 Binder Clone 40 (scFv, not shown: small tags and cut ends)
scFv: QSVLTQPPSVSAAPGQKVTISCSGSSSNIGNNYVSWYQQLPGTAPKLLIYDNNKRPSGIPDRFSGSESGTSATLGITGLQTGDEADYYCGTWDSSLSAWVFGGGTQLIILGGGGSGGGGSGGGGSQVQLQQSGPGLVKPSQTLSLTCAISGDSVSSNSAAWNWIRQSPSRGLEWLGRTHYRSKWYNDYAVSVKSRITISADTSKNQFSLQLNSVTPEDTAVYYCARDRYTVRPDAFDIWGQGTTVTVSS
As to B1, the Kd in experiment [1] was 14 nM; in experiment [2], 14 nM; in experiment [3], 8.35 nM; in experiment [4], 14 nM; in experiment [5] it was 8.35 nM. Besides, the koff in experiment [2] was 0.00081 s⁻¹. In addition, the kon in experiment [2] stood at 58000 M⁻¹ s⁻¹.

Values taken from patent US20250333515A1.
